Results: the supplement of paper PMC7877785
± gives the uncertainty stated by the source.

Assay: self-splicing fitness, log relative to wild type (ln ratio); higher = more splicing; Tetrahymena group I intron in knt gene, E. coli kanamycin selection, DiMSum; sequences stand for … in CUCUCU…GGAGGGAAAAGUUAUCAGGCAUGCACCUGGUAGCUAGUCUUUAAACCAAUAGAUUGCAUCGGUUUAAAAGGCAAGACCGUCAAAUUGCGGGAAAGGGGUCAACAGCCGUUCAGUACCAAGUCUCAGGGGAAACUUUGAGAUGGCCUUGCAAAGGGUAUGGUAAUAAGCUGACGGACAUGGUCCUAACCACGCAGCCAAGUCCUAAGUCAACAGAUCUUCUGUUGAUAUGGAUGCAGUUCACAGACUAAAUGUCGGUCGGGGAAGAUGUAUUCUUCUCAUAAGAUAUAGUCGGACCUCUCCUUAAUGGGAGCUAGCGGAUGAAGUGAUGCAACACUGGAGCCGCUGGGAACUAAUUUGUAUGCGAAAGUAUAUUGAUUAGUUUUGGAGUACUCGUGGUCG
Procedure, shortened: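 Pooled colonies went to amplicon sequencing on an Illumina HiSeq 2500 after six replicate transformations. The plates were LB agar with 100 μg/mL carbenicillin, 50 μM IPTG and 0.2% rhamnose, with or without 25 μg/mL kanamycin, incubated overnight at 37°C or 30°C. The E. coli BL21(DE3) library had all eight P1ex-region intron nucleotides randomised, the intron placed in the knt kanamycin-resistance gene on pET-22b(+). DiMSum fitness is the error-weighted combination of replicate fold changes, kanamycin against none, normalised to wild type.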

Sequence	self-splicing fitness (ln) (30 °C)	self-splicing fitness (ln) (37 °C)
CCAGAGCAAUAUUACGCAAC	-4.18 ± 0.24	-2.94 ± 0.12
CCAGAGCAAUAUUACGCAGG	-3.56 ± 0.15	-2.53 ± 0.17
CCAGAGCAAUAUUACGCAUG	-2.64 ± 0.16	-1.59 ± 0.16
CCAGAGCAAUAUUACGCGCG	-1.19 ± 0.1	-0.59 ± 0.14
CCAGAGCAAUAUUACGGAUG	-2.56 ± 0.15	-1.3 ± 0.18
CCAGAGCAAUAUUACGGCGA	-3.16 ± 0.26	-2.65 ± 0.29
CCAGAGCAAUAUUACGGCUG	-1.9 ± 0.083	-1 ± 0.12
CCAGAGCAAUAUUACGGGCU	-3.24 ± 0.3	
CCAGAGCAAUAUUACGGGGU	-2.35 ± 0.43	-2.78 ± 0.34
CCAGAGCAAUAUUACGUAGC	-3.23 ± 0.19	-2.38 ± 0.26
CCAGAGCAAUAUUACGUCAC	-2.34 ± 0.3	
CCAGAGCAAUAUUACGUCCA	-2.05 ± 0.33	-1.44 ± 0.35
CCAGAGCAAUAUUACGUCCG	-1.7 ± 0.12	0.0963 ± 0.14
CCAGAGCAAUAUUACGUGGA	-4.15 ± 0.23	-2.03 ± 0.16
CCAGAGCAAUAUUACGUUAC	-3.64 ± 0.46	-1.7 ± 0.34
CCAGAGCAAUAUUACGUUUC	-3.23 ± 0.22	-3.61 ± 0.31
CCAGAGCAAUAUUACGUUUU	-3.06 ± 0.18	-2.62 ± 0.21
CCAUAGCAAUAUUACGAACG	-0.593 ± 0.09	-0.0842 ± 0.11
CCAUAGCAAUAUUACGACAC	-2.94 ± 0.29	-1.99 ± 0.37
CCAUAGCAAUAUUACGAUGA	-0.628 ± 0.092	-0.23 ± 0.1
CCAUAGCAAUAUUACGCAAA	-1.93 ± 0.21	-2.15 ± 0.3
CCAUAGCAAUAUUACGCACC	-1 ± 0.34	
CCAUAGCAAUAUUACGCCCU	-2.8 ± 0.29	-2.84 ± 0.39
CCAUAGCAAUAUUACGCGAG	-2.77 ± 0.16	-1.22 ± 0.13
CCAUAGCAAUAUUACGCUAC	-4.24 ± 0.28	-3.23 ± 0.32

Sequence	self-splicing fitness (ln) (30 °C)	self-splicing fitness (ln) (37 °C)
CCAUAGCAAUAUUACGGCUG	-3.05 ± 0.15	-1.62 ± 0.14
CCAUAGCAAUAUUACGGGGC	-2.41 ± 0.15	-2.95 ± 0.29
CCAUAGCAAUAUUACGGGGU	-3.73 ± 0.18	-2.46 ± 0.17
CCAUAGCAAUAUUACGGGUA	-3.25 ± 0.27	-2.87 ± 0.27
CCAUAGCAAUAUUACGGUAU	-3.54 ± 0.24	-1.34 ± 0.19
CCAUAGCAAUAUUACGGUUA	-3.57 ± 0.29	-2.73 ± 0.21
CCAUAGCAAUAUUACGUAAU	-3.14 ± 0.15	-3.15 ± 0.23
CCAUAGCAAUAUUACGUAGC	-2.52 ± 0.21	-2.05 ± 0.47
CCAUAGCAAUAUUACGUCUU	-3.12 ± 0.15	-2.56 ± 0.17
CCAUAGCAAUAUUACGUGUG	-2.23 ± 0.09	-1.07 ± 0.08
CCCAAGCAAUAUUACGAGAG	-2.99 ± 0.079	-1.93 ± 0.079
CCCAAGCAAUAUUACGAGUG	-2.61 ± 0.16	-2.94 ± 0.17
CCCAAGCAAUAUUACGAUCA	-3.67 ± 0.26	-2.57 ± 0.16
CCCAAGCAAUAUUACGAUCG	-3.46 ± 0.19	-2.93 ± 0.19
CCCAAGCAAUAUUACGAUGG	-2.89 ± 0.13	-1.99 ± 0.13
CCCAAGCAAUAUUACGCAUG	-3.29 ± 0.2	-2.34 ± 0.22
CCCAAGCAAUAUUACGCCGG	-3.22 ± 0.29	-2.35 ± 0.32
CCCAAGCAAUAUUACGCGUG	-3.31 ± 0.12	-3.1 ± 0.18
CCCAAGCAAUAUUACGGAGA		-1.03 ± 0.17
CCCAAGCAAUAUUACGGCAU	-3.63 ± 0.16	-2.84 ± 0.17
CCCAAGCAAUAUUACGGGGC	-4.7 ± 0.39	-3.08 ± 0.27
CCCAAGCAAUAUUACGGUCG	-2.3 ± 0.094	-0.827 ± 0.094
CCCAAGCAAUAUUACGUAAU	-4.69 ± 0.17	-2.97 ± 0.19
CCCAAGCAAUAUUACGUCCG	-3.6 ± 0.43	-2.45 ± 0.3
